Assay results from the supplement of paper PMC9170038.

System: K4 kissing-loop RNA reporter
Assay: apparent KD of K4 kissing-loop reporter; higher = weaker reporter binding
Conditions: Eterna round: R107
Description: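 RNA-MaP round R107: designed RNA switches with theophylline, tryptophan, arginine or FMN aptamers are transcribed on-chip within common flanks. They are titrated with a labelled K4 kissing-loop RNA reporter in RNA-MaP buffer (100 mM Tris pH 7.5, 80 mM KCl, 4 mM MgCl2), without ligand or with the indicated ligand. Median apparent KD per design.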

[1] = input ligand: theophylline 20 uM
[2] = input ligand: tryptophan 2.4 mM
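Note: bound reporter read as fluorescence of individual clusters on recovered sequencing chips by microscopy, with normalized cluster intensities fitted with a binding model.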

Sequence	apparent KD of K4 kissing-loop reporter (input ligand: FMN 200 uM)	apparent KD of K4 kissing-loop reporter (input ligand: arginine 13.2 mM)	apparent KD of K4 kissing-loop reporter (input ligand: none)	apparent KD of K4 kissing-loop reporter [1]	apparent KD of K4 kissing-loop reporter [2]
CGCAGUGAUGUUGCGAGUAGCUACAGGGAAGGAGCGUGCUAGAGCACAGGUAGGUCGCCCUCGGGCAGUGAUGUUGCCAAAGGUU [Exclusion ARginine A GF 16]	77.1 nM	85.2 nM	79.8 nM	80.6 nM	68.3 nM
CGCCGCAAGGCGGUCCUGCCCACUCCGGAAGGAGCGCCCGCAAGGGCAGGUAGGUCGCCGGAGUGAUGUUCCGGUGGCAGGACCG [#2 Exclusion - Arginine A Attempt #4 (Inspired by Omei)]	477 nM	112 nM	422 nM	264 nM	245 nM
CGCGACGUGGUCACGCCAGUCUCGUUAACCAAGGAUAUUGAGAAGACAAGAAGGUGGAUGUACCAUAGUGAUGUUGUGGUCAGUA [theeternabot_sameState_KL_FMN_A_17]	416 nM	356 nM	465 nM	448 nM	388 nM
CGCGCGGGUUUGAGAGGGUUCGCGCGAAGUGAGGAUAUUUAGGGAGAAAGAAGGCACUAUAAAAUAUAGUGAUGUUAUAUAAGGG [SSFMNA.H]	699 nM	93.9 nM	1110 nM	371 nM	342 nM
CGCGUUGGUUGAGAGGUUGGCGCGAAUGAUACCAGUAUAUAAGAAUACCCUUGGCAGCAUAAGAAAGAUAUAGUGAUGUUGUAUA [SSTheophA.I]	469 nM	232 nM	454 nM	289 nM	420 nM
CGCUGGGCGAGUGAUGUUCGCUCACGUGAUACCAGUGCCAUCCAACACCCUUGGCAGCACGCGGGCAGUGAUGUUGUCCUUAGUG [Exclusion Theophylline A GF8]	127 nM	123 nM	128 nM	125 nM	116 nM
CGCUUAGUGAUGUUUGAUUUGGCGCAUGCAGAGGAUAUAGGGUGCUUUAGAAGGCUGAGGAGUGCGCCGAGUGAUGUUCGGCGCU [Exclusion FMN A GF12]	183 nM	141 nM	212 nM	162 nM	166 nM
CGGAGUGAUGUUCCGUUAAUUAAUUAUUUACGAGGACCGGUACGGCCGCCACUCGAUUUUGCUUUUAUUUAAUGUUUGGAAAUUU [JR_SSTryptoA_Sub006]	135 nM	143 nM	142 nM	146 nM	101 nM
CGGAUGUAGUGAUGUUAUAUAAGAAGUAGACGAGGACCGGUACGGCCGCCACUCGAAACGGCUACUAGCGCGUUGCGAGGUGUGC [ExTryptoA.Ch]	651 nM	681 nM	549 nM	688 nM	500 nM
CGGUACGUCGCAGGAUAUGGAUUCUGGAGUGAUGUUUCAGAGGCAUGCGGAAAACGCAUGCCGACUCCAGAAGGGCGACGUACCG	752 nM	85.8 nM	276 nM	24 nM	376 nM
CGUCGGUAGUGAUGUUGCCACGACGCUUUUAAGGAUAUAAGCUAAGUUAGAAGGUAAGAGAGUCAGCCCGGUGGCCUUAGAGUAG [theeternabot_exclusion_KL_FMN_A_17]	257 nM	186 nM	195 nM	162 nM	151 nM
CGUGCCCAGCCGGAUACCAGUGACCCGCUGGGAACCGCGGGCCCAGAGUGAUGUUCGGGACACCCUUGGCAGCCGCCUGGGCGGC [#2 Same State - Theophylline B Attempt #12 (HarryS)]	1380 nM	724 nM	462 nM	440 nM	1250 nM
CUAGCCGGGAAAGGAUAUACACACGCACAUAACGAGUGAUGUUCGUUAAUACCAACUUGGUUAACUGUAGAAGGUUCAUCGUCAC [theeternabot_sameState_KL_FMN_B_36]	579 nM	576 nM	803 nM	793 nM	517 nM
CUAUGGAAACAUAGUGAGCGGGAAACCGAUACCAGUAUGGAAACAUACCCUUGGCAGCGGAAUGCUCAAACGGAGUGAUGUUCCG [Theophylline A K4 22]	265 nM	216 nM	270 nM	235 nM	240 nM
CUGGGUUGACGAAAAGUCAACAAAUGAGAAGGAGCGCACGAAAGUGCAGGUAGGUCGCUCAAUCCAGUGAUGUUGGAUCAUCCAG [#SwitchBubble 12 #K4Late]	571 nM	601 nM	649 nM	638 nM	472 nM
CUGUACAUCUCGGCCGCCACUGACAUGAGUGAUGUUCAUGUACAUGAGUGAUGUUCAUGUUCGGCCAGGACCGGGAGGUGUGCAG [KL-SSTryp-B2 #analogue #double KL]	352 nM	184 nM	274 nM	271 nM	216 nM
CUUGAUGUGUCGGCCGCCACUGGUAUAGGCGGACUAUAACGACAUGAGUGAUGUUCAUGUUCGUCUAGGACCGGGACACAUUGUA [Tryp B SS t4]	112 nM	97.4 nM	104 nM	100 nM	111 nM
GAAUUAUGUAGAAGGAGCGUUAGAAGGUAUAGGUGCGAGUGAUGUUUGGAUUUGUUAAUUUGACAGGUAGGUCGCUACAGAAGGA [KL-SSArg B18 #analogue]	946 nM	259 nM	567 nM	205 nM	306 nM
GAAUUGACGAGUGAUGUUCGUCCACAAUACCGAGGACCGGUACGGCCGCCACUCGAGCAAUGUGAAUAGGGUCGCGUUUUGCAGU	294 nM	266 nM	295 nM	352 nM	187 nM
GACGGGUUGCUGCUCAAUCCGUCGCAUGAUCGAGGACCGGUACGGCCGCCACUCGAGGCCAUGCCGUACGAGUGAUGUUCGUGCG [Xeerlaus]	387 nM	327 nM	324 nM	388 nM	190 nM
GACUGGAGUGAUGUUCCAUUAACGAUCCUACGAGGACCGGUACGGCCGCCACUCGAAAUGCAGUGAUGUUGCAGCCAGCCGUACU [Exclusion Trptophan A GF 8]	157 nM	180 nM	162 nM	192 nM	142 nM
GAGAGCCCUGGAGGAUAUGAGUCUAGUGAUGUUAGGCGGUCCAUGCGCGUGGCGCGUUAUGCCCUUUUAGAAGGCCAGGGCUCUC [#2 Exclusion - FMN B Attempt #18 (HarryS)]	109 nM	68.5 nM	88.5 nM	85.2 nM	89.7 nM

Sequence	apparent KD of K4 kissing-loop reporter (input ligand: FMN 200 uM)	apparent KD of K4 kissing-loop reporter (input ligand: arginine 13.2 mM)	apparent KD of K4 kissing-loop reporter (input ligand: none)	apparent KD of K4 kissing-loop reporter [1]	apparent KD of K4 kissing-loop reporter [2]
GAGAUAGAGGCGGCCGCCACUAGUGAUGUUAGUGAUGUUAGAUAGAGAAUAUAACAGGGAUUAGAUAGGACCGGGCCAGAUGGAG ['lljullin]	116 nM	104 nM	130 nM	103 nM	100 nM
GAGCGGUAGAGGCUACCGCUAUUCUGAGAAGGAGCGCAGAUGACUGCAGGUAGGUCGCUUAGAGCUUGCAGUGAUGUUGCAAGUU [Inzarier]	178 nM	176 nM	191 nM	181 nM	181 nM
GAGGGCCCUGUAGGAUAUGAGUCUAGUGAUGUUAGGCGGUCCAUGCGCGUGGCGCGUUAUGCCCUUUUAGAAGGACAGGGCUCUC [#2 Exclusion - FMN B Attempt #21 (HarryS)]	109 nM	63 nM	82.4 nM	83.3 nM	84.7 nM
GAUAGGAAACUAUCAAAUCGGGAAACCGAUACCAGUAUGGAUUCAUACCCUUGGCAGCGGGAUUAUAAAAUAGGAGUGAUGUUCC [Theophylline A K4 16]	219 nM	213 nM	220 nM	241 nM	189 nM
GAUGAUCGCGCGGCCGCCACUGGUCAGUGAUGUUGACAUUAAUGCGCCGAGUAGUAACGGCGCAGUAGGACCGGGCGCGAUGUAG [#13 K4 Tryptophan B Same State]	151 nM	139 nM	139 nM	198 nM	110 nM
GAUGGUCGAGAAGGAUAUGUGACUACCAGAAGGAAAUUCAGUGAUGUUGAUUGUCGCGAGCAGGAGACAGAAGGUCUCAGACAUA [theeternabot_exclusion_KL_FMN_B_5]	506 nM	265 nM	330 nM	351 nM	276 nM
GAUUAAUAAGAGGAUACCAGUACUAAUAAAGUACAUUAAUAGUAGAGUGAUGUUCUAAAGUACCCUUGGCAGCUUAGAGUAAGUU [#08 K4 Theophylline B Exclusion]	128 nM	224 nM	157 nM	226 nM	97.5 nM
GAUUACAACAGAGUGAUGUUCUGACUUUCUCGAGGACCGGUACGGCCGCCACUCGUUAAACAAAGUGGUUUGCCAAGGCCAACUU	139 nM	198 nM	157 nM	208 nM	111 nM
GAUUCAGUGAUGUUGGAAGGCGAGCGGGAUACCAGCCGAGACUCAGGCCCUUGGCAGCCCACAUAUCCCAGGUAGAUAGUAGAUC [Same State - Theophylline A (Freestyle 8)]	193 nM	106 nM	129 nM	166 nM	135 nM
GAUUCUAGCGAAAGUGAUGUUUUCGAGGAUACCAGUGCCACUUGACACCCUUGGCAGCCUACCCGUCAUCACAAGUGGCGUUAAA [theeternabot_exclusion_KL_Theo_A_28]	136 nM	114 nM	129 nM	138 nM	118 nM
GAUUGGCGGACGGCCGCCACUCGGACGAGUCACAGUGAUGUUGUGGUUUGCCAGUCGACUUCAUCGAGGACCGGGUUUGUCGGGC [Exclusion Tryptophan B GF 21]	592 nM	407 nM	497 nM	405 nM	349 nM
GAUUUAGAGGCGGCCGCCACUAGUGAUGUUAGUGAUGUUUGAUAGGGAAUAUAUCUGCGAGUAGAUAGGACCGGGCCAGAUGGAG [eccvbmullin]	192 nM	128 nM	150 nM	168 nM	151 nM
GCAAACCUCAGUGAUGUUGAGAAAUCGGAAGGAGCGCGUGAAAACGCAGGUAGGUCGCCGACACAUGAAGUAUCUUCGUGUUUGC [Arginine A K4 22]	276 nM	272 nM	316 nM	328 nM	243 nM
GCAACAUUGGUAGGAUAUCAUUCUGAGUGAUGUUCAGGGUUCAGCUAACGAAAGUUAGUUGUACCAUGAGAAGGGCUAAUGUUGC [Omei KL FMN B SS A v5]	425 nM	711 nM	967 nM	820 nM	989 nM
GCAGACACGCAGUGAUGUUGCGAAACGGAAGGAGCGCGUGAAAACGCAGGUAGGUCGCCGACACAUAAAUUAUAAUUUUGUUUGC [Arginine A K4 14]	253 nM	214 nM	246 nM	237 nM	205 nM
GCAGUGAUGUUGCGGAUGUACAGUGGCGUGCGAGGACCGGUACGGCCGCCACUCGUACAGAGCAAGCUAAUACAUCGAUAGGUGA [whbob_SS_Tryp_A_m4]	436 nM	223 nM	207 nM	382 nM	240 nM
GCCAUCUACUAAGGAUAUUAAGUCAAUAUUUGUGGUGCCAUCUGUCGUUCAGGGCAGUGAUGUUGCUAAGAAGGUAGUCUGUCGG [theeternabot_exclusion_KL_FMN_B_39]	757 nM	441 nM	636 nM	593 nM	407 nM
GCCCGGUGAAUCCGCCAAGAUAGACACCGUCGAGGACCGGUACGGCCGCCACUCGAGUACGAGUGAUGUUCGUACGCGGUGUCGA [Onedzate]	606 nM	728 nM	657 nM	431 nM	189 nM
GCCGUACGCAUGGAUACCAGCUAGACCGAGUGAUGUUCAGGUCUGAAUGCCGGUAAUAAGAGCCCUUGGCAGCCAUGCGUACGGC	361 nM	262 nM	358 nM	335 nM	307 nM
GCCGUAGAUGGAAGGAGCGUGGUCUAGAAGCACAAGUGAUGUUUGUGGUAACCUUCUGACCCACAGGUAGGUCGCCAUCUACGGC	88.4 nM	78.4 nM	85.7 nM	68.1 nM	82.1 nM
GCCGUAGAUUGAAGGAGCGGGCCGUAGUGAUGUUACGCCAAGUUGUCUUUUAUUGAUGUGGCCCAGGUAGGUCGCAAUCUACGGC	300 nM	287 nM	311 nM	217 nM	273 nM
